Data reported in paper PMC11070986 (Nature, 2024).

Molecular target: the molecule itself
Experiment: cryo-EM structure

B1: human VMAT1(ΔL1/2) (natural protein, UniProt P54219 1-525, looked up)
chain: MLRTILDAPQRLLKEGRASRQLVLVVVFVALLLDNMLFTVVVPIVPTFLYDMEFKEVNSSLHLGHAGSNCLQGTGFLEEEITRVGVLFASKAVMQLLVNPFVGPLTNRIGYHIPMFAGFVIMFLSTVMFAFSGTYTLLFVARTLQGIGSSFSSVAGLGMLASVYTDDHERGRAMGTALGGLALGLLVGAPFGSVMYEFVGKSAPFLILAFLALLDGALQLCILQPSKVSPESAKGTPLFMLLKDPYILVAAGSICFANMGVAILEPTLPIWMMQTMCSPKWQLGLAFLPASVSYLIGTNLFGVLANKMGRWLCSLIGMLVVGTSLLCVPLAHNIFGLIGPNAGLGLAIGMVDSSMMPIMGHLVDLRHTSVYGSVYAIADVAFCMGFAIGPSTGGAIVKAIGFPWLMVITGVINIVYAPLCYYLRSPPAKEEKLAILSQDCPMETRMYATQKPTKEFPLGEDSDEEPDHEE
stoichiometry N: 2
